Measured values reported in patent US20200317755A1 (HUMABS BIOMED, published 2020).

What was measured:
[1] = molecular target: T1, ZIKV EDIII (Zika virus, UniProt A0A024B7W1 599-693); assay: ELISA
T1 construct: also called domain III of ZIKV E protein; DIII ZI

[2] = molecular target: T2, ZIKV E protein (Zika virus, UniProt Q32ZE1 291-694); assay: ELISA
T2 construct: domain: envelope protein (E protein); also called Zika virus envelope protein; recombinant ZIKV E protein

B1: ZKA230-Fab (Fab, V domains shown)
VH: QVQLQESGPGLVKPSETLSLTCAVSGGSISSDYWSWIRQPPGKGLEWIGYIYYSGSTNYNPSLKSRVTISVDTSKNHFSLKLNSVTAADTAVYYCARRRKYDSLWGSFAFDIWGQGTMVTVSS
VL: QSVLTQPPSASGTPGQRVTISCSGSSSNIGGNYVYWYQQLPGTAPKLLICINDHRPSGVPDRFSGSKSGTSASLAISGLQSEDEADYYCATWDDSLGGLVFGGGTKLTVL
notes: also called Fab of ZKA230
binding result [1]: no binding (tested: 10 nM) | binding result [2]: no binding (tested: 10 nM)
